Test results from US20230301998A1 (SANFORD BURNHAM PREBYS MEDICAL DISCOVERY INSTITUTE, published 2023).

Assays:
Assay in all cases: Flag IP of Flag-SHARPIN from WM115 lysate, on-bead tryptic digestion, LC/MS-MS
[1] = biological target: T1, HNRNPU (human, UniProt Q00839 2-825, limits assumed)
T1 construct: endogenous protein co-purified from WM115 lysate
How it was run: (§1)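 WM115 cells transfected with Flag-SHARPIN or empty plasmid; lysed in 1% Triton X-100 buffer (50 mM Tris-HCl pH7.4, 150 mM NaCl, 1 mM EDTA). Lysates pre-cleared 1 h at 4° C, immunoprecipitated on FLAG-M2 agarose overnight at 4° C, washed, then digested with trypsin on-bead for mass spectrometry.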

[2] = biological target: T2, HSPA8 (human, UniProt P11142 2-646)
T2 construct: endogenous protein co-purified from WM115 lysate
How it was run: as §1

[3] = biological target: T3, PMEL (human, UniProt P40967 25-661, limits assumed)
T3 construct: endogenous protein co-purified from WM115 lysate
T3 sequence (looked up): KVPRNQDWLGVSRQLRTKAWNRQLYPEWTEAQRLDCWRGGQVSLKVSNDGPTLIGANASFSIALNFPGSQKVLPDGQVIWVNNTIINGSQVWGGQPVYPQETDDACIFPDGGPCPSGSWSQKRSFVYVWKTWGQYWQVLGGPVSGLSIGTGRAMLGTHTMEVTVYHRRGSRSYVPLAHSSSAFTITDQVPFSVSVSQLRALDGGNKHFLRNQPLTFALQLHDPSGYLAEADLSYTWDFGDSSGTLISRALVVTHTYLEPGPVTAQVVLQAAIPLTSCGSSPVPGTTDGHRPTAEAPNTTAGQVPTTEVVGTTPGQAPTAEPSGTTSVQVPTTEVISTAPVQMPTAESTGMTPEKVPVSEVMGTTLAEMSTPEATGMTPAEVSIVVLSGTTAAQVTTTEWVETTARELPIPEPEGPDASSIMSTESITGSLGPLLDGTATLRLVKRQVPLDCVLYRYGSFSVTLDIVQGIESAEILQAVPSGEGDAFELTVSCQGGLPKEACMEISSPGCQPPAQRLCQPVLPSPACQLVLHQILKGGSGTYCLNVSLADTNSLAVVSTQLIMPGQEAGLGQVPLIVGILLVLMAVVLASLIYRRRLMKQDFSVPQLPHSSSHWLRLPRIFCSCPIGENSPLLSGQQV
How it was run: as §1

[4] = biological target: T4, TUBB (human, UniProt P07437 1-444)
T4 construct: endogenous protein co-purified from WM115 lysate
How it was run: as §1

[5] = biological target: T5, HSPD1 (human, UniProt P10809 27-573)
T5 construct: endogenous protein co-purified from WM115 lysate
How it was run: as §1

[6] = biological target: T6, RNF31 (human, UniProt Q96EP0 1-1072)
T6 construct: endogenous protein co-purified from WM115 lysate
T6 sequence (looked up): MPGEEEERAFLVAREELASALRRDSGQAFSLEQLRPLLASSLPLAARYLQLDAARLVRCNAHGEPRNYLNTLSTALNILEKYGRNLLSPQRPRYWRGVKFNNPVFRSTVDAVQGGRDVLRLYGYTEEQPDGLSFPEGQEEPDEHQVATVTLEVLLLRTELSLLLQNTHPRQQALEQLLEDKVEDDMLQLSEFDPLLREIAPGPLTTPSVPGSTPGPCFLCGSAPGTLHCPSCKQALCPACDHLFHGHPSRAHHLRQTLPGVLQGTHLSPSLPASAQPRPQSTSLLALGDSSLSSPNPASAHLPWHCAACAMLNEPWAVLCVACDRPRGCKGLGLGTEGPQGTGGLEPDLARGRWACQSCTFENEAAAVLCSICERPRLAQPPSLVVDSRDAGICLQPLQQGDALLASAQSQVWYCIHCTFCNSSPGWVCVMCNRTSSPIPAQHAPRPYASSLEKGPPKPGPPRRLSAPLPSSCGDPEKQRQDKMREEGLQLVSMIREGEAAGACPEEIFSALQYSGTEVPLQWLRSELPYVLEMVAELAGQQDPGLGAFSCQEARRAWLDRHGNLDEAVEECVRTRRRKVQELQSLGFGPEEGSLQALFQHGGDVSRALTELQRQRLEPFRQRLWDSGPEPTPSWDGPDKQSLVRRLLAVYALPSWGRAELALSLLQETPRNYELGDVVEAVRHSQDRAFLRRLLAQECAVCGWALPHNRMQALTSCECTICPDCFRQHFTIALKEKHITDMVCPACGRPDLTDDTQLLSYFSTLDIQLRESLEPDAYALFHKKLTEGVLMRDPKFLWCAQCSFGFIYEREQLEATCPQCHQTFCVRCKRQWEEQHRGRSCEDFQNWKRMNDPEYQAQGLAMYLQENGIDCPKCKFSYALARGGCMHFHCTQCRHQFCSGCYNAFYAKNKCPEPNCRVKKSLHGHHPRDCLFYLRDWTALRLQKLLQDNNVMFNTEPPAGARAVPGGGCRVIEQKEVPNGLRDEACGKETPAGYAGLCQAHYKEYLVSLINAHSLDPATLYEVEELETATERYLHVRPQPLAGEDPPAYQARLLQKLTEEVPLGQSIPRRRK
How it was run: as §1

[7] = biological target: T7, MYH10 (human, UniProt P35580 1-1976, limits assumed)
T7 construct: endogenous protein co-purified from WM115 lysate
How it was run: as §1

[8] = biological target: T8, P4HB (human, UniProt P07237 18-508)
T8 construct: endogenous protein co-purified from WM115 lysate
How it was run: as §1

Measured: binding result

T2 sequence (P11142 2-646 limits assumed): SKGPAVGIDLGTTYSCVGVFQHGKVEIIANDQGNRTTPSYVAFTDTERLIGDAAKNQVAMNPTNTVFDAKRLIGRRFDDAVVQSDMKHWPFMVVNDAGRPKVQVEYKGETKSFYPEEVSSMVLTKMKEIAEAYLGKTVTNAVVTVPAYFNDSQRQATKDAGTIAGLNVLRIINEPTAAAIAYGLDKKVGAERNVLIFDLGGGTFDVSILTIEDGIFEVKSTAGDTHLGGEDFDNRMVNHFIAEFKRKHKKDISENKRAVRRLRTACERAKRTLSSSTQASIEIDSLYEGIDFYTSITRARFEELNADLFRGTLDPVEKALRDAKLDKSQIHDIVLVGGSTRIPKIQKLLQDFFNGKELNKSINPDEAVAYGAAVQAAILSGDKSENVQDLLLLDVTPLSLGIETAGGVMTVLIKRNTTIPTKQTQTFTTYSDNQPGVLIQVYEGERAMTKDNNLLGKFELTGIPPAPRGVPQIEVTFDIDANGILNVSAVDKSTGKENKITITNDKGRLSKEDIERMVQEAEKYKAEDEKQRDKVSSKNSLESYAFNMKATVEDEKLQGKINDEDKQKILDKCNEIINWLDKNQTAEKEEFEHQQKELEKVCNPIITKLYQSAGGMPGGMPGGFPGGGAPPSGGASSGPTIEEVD
T8 sequence (P07237 18-508 limits assumed): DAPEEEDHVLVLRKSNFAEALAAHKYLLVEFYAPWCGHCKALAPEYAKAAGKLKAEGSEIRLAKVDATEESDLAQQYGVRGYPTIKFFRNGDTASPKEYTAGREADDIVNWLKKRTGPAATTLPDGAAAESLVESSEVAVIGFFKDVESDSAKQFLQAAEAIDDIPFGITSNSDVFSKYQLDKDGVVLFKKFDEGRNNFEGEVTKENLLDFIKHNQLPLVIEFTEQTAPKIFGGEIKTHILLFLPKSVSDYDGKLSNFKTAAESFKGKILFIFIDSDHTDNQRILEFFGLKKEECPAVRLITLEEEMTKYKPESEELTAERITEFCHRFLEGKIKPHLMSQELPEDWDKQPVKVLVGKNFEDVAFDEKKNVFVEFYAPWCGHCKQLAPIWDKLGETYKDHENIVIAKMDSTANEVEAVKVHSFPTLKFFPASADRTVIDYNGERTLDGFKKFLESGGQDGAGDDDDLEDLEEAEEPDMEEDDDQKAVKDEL
T7 sequence (P35580 whole entry): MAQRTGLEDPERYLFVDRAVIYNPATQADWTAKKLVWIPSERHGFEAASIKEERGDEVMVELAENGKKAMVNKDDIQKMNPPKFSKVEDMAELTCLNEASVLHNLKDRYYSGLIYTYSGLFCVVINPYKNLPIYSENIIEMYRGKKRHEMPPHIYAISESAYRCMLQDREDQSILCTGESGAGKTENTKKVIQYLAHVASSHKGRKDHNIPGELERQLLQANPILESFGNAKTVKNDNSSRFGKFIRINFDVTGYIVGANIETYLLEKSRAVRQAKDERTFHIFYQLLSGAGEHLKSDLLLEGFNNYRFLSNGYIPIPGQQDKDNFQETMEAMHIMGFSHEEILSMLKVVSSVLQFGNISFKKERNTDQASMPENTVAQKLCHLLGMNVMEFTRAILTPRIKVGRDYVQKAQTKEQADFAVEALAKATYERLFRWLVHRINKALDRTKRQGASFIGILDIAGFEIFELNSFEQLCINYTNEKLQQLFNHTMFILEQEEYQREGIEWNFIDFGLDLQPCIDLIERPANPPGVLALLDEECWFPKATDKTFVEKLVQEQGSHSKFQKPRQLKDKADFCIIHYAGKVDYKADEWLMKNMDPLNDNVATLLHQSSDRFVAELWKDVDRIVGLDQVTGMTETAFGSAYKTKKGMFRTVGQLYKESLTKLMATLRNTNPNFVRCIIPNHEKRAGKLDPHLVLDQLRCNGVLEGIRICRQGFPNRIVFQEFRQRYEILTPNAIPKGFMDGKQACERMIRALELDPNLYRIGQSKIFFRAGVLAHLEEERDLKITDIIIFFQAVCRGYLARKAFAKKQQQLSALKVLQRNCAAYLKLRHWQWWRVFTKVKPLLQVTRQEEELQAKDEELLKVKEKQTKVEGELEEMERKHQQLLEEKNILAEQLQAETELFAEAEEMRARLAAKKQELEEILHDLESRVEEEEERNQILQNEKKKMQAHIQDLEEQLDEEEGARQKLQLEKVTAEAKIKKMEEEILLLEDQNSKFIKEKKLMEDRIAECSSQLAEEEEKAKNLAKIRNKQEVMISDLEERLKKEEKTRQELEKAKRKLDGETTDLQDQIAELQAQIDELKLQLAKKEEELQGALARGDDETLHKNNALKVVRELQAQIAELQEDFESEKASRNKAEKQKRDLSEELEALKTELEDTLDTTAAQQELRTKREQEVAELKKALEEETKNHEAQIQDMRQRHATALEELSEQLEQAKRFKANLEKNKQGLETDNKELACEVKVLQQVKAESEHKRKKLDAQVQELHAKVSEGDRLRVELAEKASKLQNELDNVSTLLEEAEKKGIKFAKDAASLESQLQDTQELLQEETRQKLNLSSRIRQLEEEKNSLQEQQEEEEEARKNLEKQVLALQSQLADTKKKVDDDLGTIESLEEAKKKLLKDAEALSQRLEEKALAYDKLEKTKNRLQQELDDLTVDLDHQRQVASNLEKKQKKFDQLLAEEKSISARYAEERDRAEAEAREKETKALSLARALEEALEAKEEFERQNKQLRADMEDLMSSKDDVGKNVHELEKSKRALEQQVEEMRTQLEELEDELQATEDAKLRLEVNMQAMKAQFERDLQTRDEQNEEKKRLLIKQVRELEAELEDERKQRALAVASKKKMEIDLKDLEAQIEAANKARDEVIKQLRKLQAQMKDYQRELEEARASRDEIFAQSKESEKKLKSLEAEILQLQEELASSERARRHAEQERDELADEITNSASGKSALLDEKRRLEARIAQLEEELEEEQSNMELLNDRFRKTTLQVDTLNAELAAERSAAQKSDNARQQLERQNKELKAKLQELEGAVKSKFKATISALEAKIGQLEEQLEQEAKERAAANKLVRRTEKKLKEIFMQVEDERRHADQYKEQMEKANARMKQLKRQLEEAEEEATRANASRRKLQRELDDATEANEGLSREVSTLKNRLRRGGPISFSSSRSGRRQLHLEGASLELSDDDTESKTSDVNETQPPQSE
T1 sequence (Q00839 2-825 limits assumed): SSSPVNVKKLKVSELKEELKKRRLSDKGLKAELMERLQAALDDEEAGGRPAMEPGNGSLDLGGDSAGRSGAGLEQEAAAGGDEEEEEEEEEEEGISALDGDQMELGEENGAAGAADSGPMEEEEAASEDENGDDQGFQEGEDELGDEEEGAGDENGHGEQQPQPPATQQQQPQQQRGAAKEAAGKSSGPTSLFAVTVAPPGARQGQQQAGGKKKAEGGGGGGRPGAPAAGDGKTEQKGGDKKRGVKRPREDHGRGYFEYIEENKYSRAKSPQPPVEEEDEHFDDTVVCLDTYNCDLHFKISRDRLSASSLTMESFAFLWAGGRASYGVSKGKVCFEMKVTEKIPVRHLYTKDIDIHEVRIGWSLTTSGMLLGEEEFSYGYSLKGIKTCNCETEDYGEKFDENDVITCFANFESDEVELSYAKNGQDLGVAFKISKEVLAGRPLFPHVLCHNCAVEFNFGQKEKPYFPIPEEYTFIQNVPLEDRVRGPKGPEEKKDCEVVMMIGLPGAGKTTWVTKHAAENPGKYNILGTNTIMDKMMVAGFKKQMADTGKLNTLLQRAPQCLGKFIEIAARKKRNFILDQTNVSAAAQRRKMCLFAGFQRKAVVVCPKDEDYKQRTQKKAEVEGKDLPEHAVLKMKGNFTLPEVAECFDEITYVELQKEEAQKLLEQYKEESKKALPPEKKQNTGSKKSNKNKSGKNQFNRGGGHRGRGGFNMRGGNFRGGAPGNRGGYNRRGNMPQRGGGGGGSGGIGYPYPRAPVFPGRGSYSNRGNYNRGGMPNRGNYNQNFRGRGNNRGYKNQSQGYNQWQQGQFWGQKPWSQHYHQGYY
T4 sequence (P07437 whole entry): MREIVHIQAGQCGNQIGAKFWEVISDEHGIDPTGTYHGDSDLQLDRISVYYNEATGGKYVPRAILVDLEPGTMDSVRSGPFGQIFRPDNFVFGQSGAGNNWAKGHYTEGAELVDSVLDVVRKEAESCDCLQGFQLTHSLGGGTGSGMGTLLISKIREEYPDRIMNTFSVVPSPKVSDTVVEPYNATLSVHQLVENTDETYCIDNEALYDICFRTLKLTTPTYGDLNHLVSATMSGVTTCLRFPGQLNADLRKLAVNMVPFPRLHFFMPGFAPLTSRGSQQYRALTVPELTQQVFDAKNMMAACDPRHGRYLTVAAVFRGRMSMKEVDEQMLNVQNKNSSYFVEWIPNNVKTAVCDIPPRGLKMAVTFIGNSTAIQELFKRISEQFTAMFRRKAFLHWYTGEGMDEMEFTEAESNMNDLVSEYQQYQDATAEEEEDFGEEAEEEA
T5 sequence (P10809 27-573 limits assumed): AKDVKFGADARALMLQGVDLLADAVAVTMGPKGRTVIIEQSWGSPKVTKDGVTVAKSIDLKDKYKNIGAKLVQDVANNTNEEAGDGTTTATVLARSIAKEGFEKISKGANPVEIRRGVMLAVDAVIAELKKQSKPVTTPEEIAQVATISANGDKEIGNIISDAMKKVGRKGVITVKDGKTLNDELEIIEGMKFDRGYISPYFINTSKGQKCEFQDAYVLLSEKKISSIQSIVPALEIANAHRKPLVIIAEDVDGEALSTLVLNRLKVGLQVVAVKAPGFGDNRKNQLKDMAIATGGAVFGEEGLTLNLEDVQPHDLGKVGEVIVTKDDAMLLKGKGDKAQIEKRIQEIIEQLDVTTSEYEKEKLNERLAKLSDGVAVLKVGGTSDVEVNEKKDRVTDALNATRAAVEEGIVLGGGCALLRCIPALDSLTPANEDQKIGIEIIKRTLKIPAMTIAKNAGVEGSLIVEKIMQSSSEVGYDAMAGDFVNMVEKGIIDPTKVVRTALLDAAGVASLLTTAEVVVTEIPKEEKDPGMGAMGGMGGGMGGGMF

B1: Flag-tagged SHARPIN (other, human, UniProt Q9H0F6 1-387, looked up)
chain: MAPPAGGAAAAASDLGSAAVLLAVHAAVRPLGAGPDAEAQLRRLQLSADPERPGRFRLELLGAGPGAVNLEWPLESVSYTIRGPTQHELQPPPGGPGTLSLHFLNPQEAQRWAVLVRGATVEGQNGSKSNSPPALGPEACPVSLPSPPEASTLKGPPPEADLPRSPGNLTEREELAGSLARAIAGGDEKGAAQVAAVLAQHRVALSVQLQEACFPPGPIRLQVTLEDAASAASAASSAHVALQVHPHCTVAALQEQVFSELGFPPAVQRWVIGRCLCVPERSLASYGVRQDGDPAFLYLLSAPREAPATGPSPQHPQKMDGELGRLFPPSLGLPPGPQPAASSLPSPLQPSWSCPSCTFINAPDRPGCEMCSTQRPCTWDPLAAAST
notes: also called Flag-SHARPIN; not shown: FLAG tag
binds: all assays above
